Our source for the V1/2 (half-maximal activation voltage, Boltzmann fit, inside-out patches, 30 µM Ca2+), τinact (inactivation time constant and shift in the voltage dependence of activation values is EP1475388A2.

The target of this experiment is human calcium sensitive potassium channel α subunit (human Slowpoke α) (human), Q12791. Briefly: cell-based or functional assay.
Sequence of human calcium sensitive potassium channel α subunit (human Slowpoke α) (human), Q12791 (Q12791 whole entry): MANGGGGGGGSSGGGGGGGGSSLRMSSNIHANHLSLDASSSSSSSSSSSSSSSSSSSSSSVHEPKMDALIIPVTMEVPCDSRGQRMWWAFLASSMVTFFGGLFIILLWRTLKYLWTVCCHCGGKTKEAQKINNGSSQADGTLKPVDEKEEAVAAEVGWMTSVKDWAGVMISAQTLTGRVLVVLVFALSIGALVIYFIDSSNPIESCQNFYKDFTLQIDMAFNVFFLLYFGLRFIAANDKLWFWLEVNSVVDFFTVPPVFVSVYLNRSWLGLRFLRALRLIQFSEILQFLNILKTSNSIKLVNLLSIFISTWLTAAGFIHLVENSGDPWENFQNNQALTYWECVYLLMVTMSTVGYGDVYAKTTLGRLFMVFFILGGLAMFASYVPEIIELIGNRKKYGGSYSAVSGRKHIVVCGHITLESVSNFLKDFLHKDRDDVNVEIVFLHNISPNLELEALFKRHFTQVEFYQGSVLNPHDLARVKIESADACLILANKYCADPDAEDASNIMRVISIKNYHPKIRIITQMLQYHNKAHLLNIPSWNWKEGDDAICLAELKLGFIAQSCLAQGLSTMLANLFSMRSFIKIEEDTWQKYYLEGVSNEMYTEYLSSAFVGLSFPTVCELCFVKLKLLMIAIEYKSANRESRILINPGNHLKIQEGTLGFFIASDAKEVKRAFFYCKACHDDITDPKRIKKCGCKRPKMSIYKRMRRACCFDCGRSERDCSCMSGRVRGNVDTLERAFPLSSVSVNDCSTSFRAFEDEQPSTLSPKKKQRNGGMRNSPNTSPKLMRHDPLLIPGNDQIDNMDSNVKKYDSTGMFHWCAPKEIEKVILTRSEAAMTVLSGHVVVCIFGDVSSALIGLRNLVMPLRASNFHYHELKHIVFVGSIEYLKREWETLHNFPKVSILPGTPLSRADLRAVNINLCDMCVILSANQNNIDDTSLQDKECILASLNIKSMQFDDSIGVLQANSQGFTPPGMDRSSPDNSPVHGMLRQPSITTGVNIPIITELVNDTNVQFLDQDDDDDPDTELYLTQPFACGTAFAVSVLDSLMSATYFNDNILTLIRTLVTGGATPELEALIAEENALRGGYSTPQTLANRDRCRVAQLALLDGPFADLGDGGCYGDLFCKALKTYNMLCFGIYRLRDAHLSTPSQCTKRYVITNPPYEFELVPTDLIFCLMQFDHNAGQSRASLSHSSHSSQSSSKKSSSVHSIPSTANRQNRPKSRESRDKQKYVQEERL

B1: human calcium sensitive potassium channel β3a subunit, Q9NPA1 23-279 (protein)
chain: MQPFSIPVQITLQGSRRRQGRTAFPASGKKRETDYSDGDPLDVHKRLPSSTGEDRAVMLGFAMMGFSVLMFFLLGTTILKPFMLSIQREESTCTAIHTDIMDDWLDCAFTCGVHCHGQGKYPCLQVFVNLSHPGQKALLHYNEEAVQINPKCFYTPKCHQDRSDLLNSALDIKEFFDHKNGTPFSCFYSPASQSEDVILIKKYDQMAIFHCLFWPSLTLLGGALIVGMVRLTQHLSLLCEKYSTVVRDEVGGKVPYIEQHQFKLCIMRRSKGRAEKS
With B1, the V1/2 (half-maximal activation voltage, Boltzmann fit, inside-out patches, 30 µM Ca2+) is 45.4 mV and the τinact (inactivation time constant at 80 mV with 30 µM intracellular Ca2+) is 30 to 40 ms.

B2: human calcium sensitive potassium channel β3c subunit, Q9NPA1 23-279 (protein)
chain: MFPLLYELTAVSPSPFPQRTAFPASGKKRETDYSDGDPLDVHKRLPSSTGEDRAVMLGFAMMGFSVLMFFLLGTTILKPFMLSIQREESTCTAIHTDIMDDWLDCAFTCGVHCHGQGKYPCLQVFVNLSHPGQKALLHYNEEAVQINPKCFYTPKCHQDRSDLLNSALDIKEFFDHKNGTPFSCFYSPASQSEDVILIKKYDQMAIFHCLFWPSLTLLGGALIVGMVRLTQHLSLLCEKYSTVVRDEVGGKVPYIEQHQFKLCIMRRSKGRAEKS
As for B2, the V1/2 (half-maximal activation voltage, Boltzmann fit, inside-out patches, 30 µM Ca2+) amounted to 20 mV and the τinact (inactivation time constant at 80 mV with 30 µM intracellular Ca2+) was in the range of 30 to 40 ms.

B3: human calcium sensitive potassium channel β2 subunit, Q9Y691 1-235 (protein)
chain: MFIWTSGRTSSSYRHDEKRNIYQKIRDHDLLDKRKTVTALKAGEDRAILLGLAMMVCSIMMYFLLGITLLRSYMQSVWTEESQCTLLNASITETFNCSFSCGPDCWKLSQYPCLQVYVNLTSSGEKLLLYHTEETIKINQKCSYIPKCGKNFEESMSLVNVVMENFRKYQHFSCYSDPEGNQKSVILTKLYSSNVLFHSLFWPTCMMAGGVAIVAMVKLTQYLSLLCERIQRINR
In the case of B3, the V1/2 (half-maximal activation voltage, Boltzmann fit, inside-out patches, 30 µM Ca2+) is -55 mV; the shift in the voltage dependence of activation was found to be 80 mV; the τinact (inactivation time constant at 80 mV with 30 µM intracellular Ca2+) was in the range of 30 to 40 ms.
